Where two headings read alike, the source gives them in different places. Values belong to the substance of their own block, whether it stands above or below them.
Key:
[1] = molecular target: 3f8 IgG with Fc variant V12, displayed on CHO cells (human); assay: flow cytometry on cells
[2] = molecular target: 3f8 IgG with Fc variant 3a-11, displayed on CHO cells (human); assay: flow cytometry on cells
[3] = molecular target: 3f8 IgG with Fc variant 3a-7, displayed on CHO cells (human); assay: flow cytometry on cells
[4] = molecular target: 3f8 IgG with Fc variant 3a-2, displayed on CHO cells (human); assay: flow cytometry on cells
[5] = molecular target: 3f8 IgG with Fc variant 3a-14, displayed on CHO cells (human); assay: flow cytometry on cells
[6] = molecular target: 3f8 IgG with Fc variant 3a-3, displayed on CHO cells (human); assay: flow cytometry on cells
[7] = molecular target: 3f8 IgG with Fc variant 3a-8, displayed on CHO cells (human); assay: flow cytometry on cells
[8] = molecular target: 3f8 IgG with Fc variant 3a-5, displayed on CHO cells (human); assay: flow cytometry on cells
[9] = molecular target: 3f8 IgG with Fc variant LPL, displayed on CHO cells (human); assay: flow cytometry on cells
[10] = molecular target: 3f8 IgG with Fc variant 3a-10, displayed on CHO cells (human); assay: flow cytometry on cells
[11] = molecular target: 3f8 IgG with Fc variant 3a-4, displayed on CHO cells (human); assay: flow cytometry on cells
[12] = molecular target: 3f8 IgG with Fc variant 3a-9, displayed on CHO cells (human); assay: flow cytometry on cells
[13] = molecular target: 3f8 IgG with Fc variant 3a-1, displayed on CHO cells (human); assay: flow cytometry on cells
[14] = molecular target: FcγRIIb extracellular domain, biotinylated (human) (UniProt P31994); assay: BLI
[15] = molecular target: FcγRIIIa-176F extracellular domain, biotinylated (human) (UniProt P08637); assay: BLI
[16] = molecular target: FcγRIIa-131H extracellular domain, biotinylated (human) (UniProt P12318); assay: BLI
[17] = molecular target: FcγRIIIa-176V extracellular domain, biotinylated (human) (UniProt P08637); assay: BLI
[18] = molecular target: FcγRIIa-131R extracellular domain, biotinylated (human); assay: BLI
[19] = molecular target: FcγRIIb extracellular domain, biotinylated (human) (UniProt P31994); assay: BLI; remark: listed apart in the source
[20] = molecular target: FcγRIIIa-176F extracellular domain, biotinylated (human) (UniProt P08637); assay: BLI; remark: listed apart in the source
[21] = molecular target: FcγRIIa-131H extracellular domain, biotinylated (human) (UniProt P12318); assay: BLI; remark: listed apart in the source
[22] = molecular target: FcγRIIIa-176V extracellular domain, biotinylated (human) (UniProt P08637); assay: BLI; remark: listed apart in the source
[23] = molecular target: FcγRIIa-131R extracellular domain, biotinylated (human); assay: BLI; remark: listed apart in the source

FcγRIIa-131R extracellular domain, biotinylated (human), sequence (P12318 34-217): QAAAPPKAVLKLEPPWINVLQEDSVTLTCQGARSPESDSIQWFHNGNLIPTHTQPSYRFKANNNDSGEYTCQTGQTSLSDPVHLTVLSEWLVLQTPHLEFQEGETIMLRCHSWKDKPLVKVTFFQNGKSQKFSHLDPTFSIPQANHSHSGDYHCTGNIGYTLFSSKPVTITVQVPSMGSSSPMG

- FcγRIIb^High cells (%) [1]: 7.39%
- FcγRIIb MFI / TNFα MFI [2]: 12.9 MFI ratio
Substance: FcγRIIb extracellular domain, biotinylated (from UniProt P31994 43-217) (receptor)

- FcγRIIIa-176F^High cells (%) [3]: 1.15%
- FcγRIIIa-176F MFI / TNFα MFI [4]: 11.1 MFI ratio
- FcγRIIIa-176F^High cells (%) [4]: 0.61%
- FcγRIIIa-176F^High cells (%) [5]: 1.15%
- FcγRIIIa-176F MFI / TNFα MFI [6]: 9.3 MFI ratio
- FcγRIIIa-176F^High cells (%) [6]: 0.81%
- FcγRIIIa-176F MFI / TNFα MFI [7]: 13.2 MFI ratio
- FcγRIIIa-176F^High cells (%) [7]: 2.23%
- FcγRIIIa-176F MFI / TNFα MFI [8]: 9.6 MFI ratio
- FcγRIIIa-176F^High cells (%) [8]: 0.8%
- FcγRIIIa-176F MFI / TNFα MFI [9]: 7.5 MFI ratio
- FcγRIIIa-176F^High cells (%) [9]: 0.25%
- FcγRIIIa-176F MFI / TNFα MFI [10]: 6.9 MFI ratio
- FcγRIIIa-176F MFI / TNFα MFI [11]: 8.6 MFI ratio
- FcγRIIIa-176F^High cells (%) [11]: 0.93%
- FcγRIIIa-176F MFI / TNFα MFI [12]: 9.2 MFI ratio
- FcγRIIIa-176F MFI / TNFα MFI [13]: 8 MFI ratio
- FcγRIIIa-176F^High cells (%) [13]: 0.1%
Substance: FcγRIIIa-176F extracellular domain, biotinylated (from UniProt P08637 17-208) (receptor)

- Kd [14]: 580 nM
- Kd [15]: 770 nM
- Kd [16]: 390 nM
- Kd [17]: 390 nM
- Kd [18]: 520 nM
- Kd [19]: 570 nM
- Kd [20]: 640 nM
- Kd [21]: 240 nM
- Kd [22]: 430 nM
- Kd [23]: 330 nM
Substance: trastuzumab IgG with WT Fc (antibody)
